Assay results reported in patent publication US12454527B2, “Conjugate monomethyl auristatin E to obtain a composition for treatment of prostate cancer” (priority 2019, dated 2025).
Starred links: 1 amine or outer side, 2 acyl side, 3 side chain; linkers in the order of their positions; H or OH if unused. Non-standard residues stand in square brackets, D forms with d. Residues, ends and D or L forms follow the SMILES beside them. ξ: configuration not given here. *: point of attachment. GluureaLys(ε-3-ClBenzyl) = O=C(O)CC[C@H](NC(=O)N[C@@H](CCCCN(Cc1cccc(Cl)c1)*)C(=O)O)C(=O)O; Dolaproine = CO[C@@H]([C@@H]1CCCN1)[C@@H](C)C(=O)O; Dil = CC[C@H](C)[C@H](NC)[C@@H](CC(=O)O)OC; X1 = O=C(CCCc1cn(CCCN[*:1])nn1)[*:2]; PABC = O=C(OCc1ccc(N[*:1])cc1)[*:2]; X2 = C[C@@H](N*)[C@@H](O)c1ccccc1; Cit = NC(=O)NCCC[C@H](N)C(=O)O; Suc = O=C(CCC(=O)[*:2])[*:1]; NMeV = CN[C@H](C(=O)O)C(C)C; ξV = CC(C)C(N)C(=O)O; Ahx = NCCCCCC(=O)O

Experiments:
[1] = Assessment of the tolerability in the 22Rv1 xenograft study (body weight, survival, general health); assay type: in vivo, mice; details: 0.3 mg/kg; for Body weight of mice (M ± m): in g (unit assumed)
[2] = Chronic toxicity study, intravenous once every 3 weeks, rats; assay type: in vivo; details: for Necropsy / Signs of intoxication: male rats
Source text: (§1) Chronic toxicity study of Conjugate (1) product on Rats and rabbits.
(§2) • 1. Conjugate (I). • 2. Solubilizer Pluronic F127—in the amount, five-fold greater than the conjugate amount by weight. • 3. Diluent—Haemodes infusion solution. • 4. Dimethyl sulfoxide—in the amount of 5% of the prepared volume.
(§3) A 1 00 white ° inbred mature male rats about 2 months old with a body weight of 190-210 g and 60 sexually mature male rabbits of the Soviet Chinchilla breed about 2 months old with a body weight of […] were involved in the experiment.
(§4) The study design determined the intravenous administration of the test drugs once every 3 weeks for 3 months (a total of 4 injections) for the experiment of chronic toxicity determination. The local irritant effect of the products within intravenous administration will be studied together with the chronic toxicity study.
(§5) Each animal received the intravenous injection of the test drug or the reference drug in a volume not exceeding the acceptable volume for a single injection of 2 mL for rats and 20 mL for rabbits. The products were replaced with a Pluronic solution with DMSO in Haemodes in the control group of animals. The duration of observation for laboratory animals was 4 weeks (intermediate stage).
(§6) Apparent signs of intoxication were evaluated daily. During the study, integral indicators of animal health were recorded (see Tables 15. 16, 17).

[3] = tested on: Lymphoid Leukosis P388; test: Antineoplastic activity on lymphoid leukosis P388 model (lifespan/survival); assay type: in vivo, male mice BDF1; details: 0.5 and 1 mg/kg
Method: Lymphoid Leukosis P388 (male mice BDF1)—observation was held for 30 days since the first product administration (the product administration was started 24 hours after revaccination) and it was administered 3 times intraperitoneally in a day.
• 1. Group 1—tumor growth control (TGC) • 2. Group 2—placebo (diluent) • 3. Group 3—intraperitoneal Conjugate (I) administration in a dose of 0.5 mg/kg 3 times; • 4. Group 4—intraperitoneal Conjugate (I) administration in a dose of 1.0 mg/kg 3 times:
Experimental animals of control group (TGC) were administered with 0.9% saline, the placebo group was injected with the diluent (DMSO+Haemodes) of similar volume. The antineoplastic activity was determined according to mice lifespan.

[4] = Chronic toxicity study, intravenous once every 3 weeks, rabbits; assay type: in vivo
Source text: as §1, §2, §3, §4, §5, §6

[5] = Acute toxicity study, single intravenous administration, rats; assay type: in vivo; details: male rats
Source text: Acute toxicity study of Conjugate (I) product on mice and rats.
• 1. Conjugate (I). • 2. Solubilizer Pluronic F127—in the amount, five-fold greater than the conjugate amount by weight. • 3. Diluent Haemodes infusion solution. • 4. Dimethyl sulfoxide—in the amount of 5% of the prepared volume.
The experiment took white outbred male mice aged about 2 months with body weight of 19-21,g, and also white outbred mature male rats aged about 2 months with body weight 190-210 g.
Acute toxicity study was performed within the intravenous administration. Before the start of the experiment to determine an acute toxicity, the animals were deprived of food and water (mice were deprived for 2 hours, rats—for 10-12 hours), and then weighed. Then each animal received the intravenous drug injection according to the study design, in a volume not exceeding the acceptable single injection volume: 0.5 mL for mice, 2 mL for rats, and fractionally if necessary. The control group of animals received Pluronic solution in Haemodes in the proportion used fort dose preparation of 78 mg/kg for mice and 38 mg/kg for rats. The duration of observation for laboratory animals was 14 days. During this period, visible signs of intoxication were assessed (see Table 9).

[6] = group 2, 150 μg/kg intravenously 1 time in 3 weeks
[7] = group 3, 188 μg/kg intravenously 1 time in 3 weeks
[8] = male rabbits, group 7, 81 μg/kg intravenously 1 time in 3 weeks
[9] = male rabbits, group 8, 102 μg/kg intravenously 1 time in 3 weeks

CC[C@H](C)[C@@H]([C@@H](CC(=O)N1CCC[C@H]1[C@H](OC)[C@@H](C)C(=O)N[C@H](C)[C@@H](O)c1ccccc1)OC)N(C)C(=O)[C@@H](NC(=O)[C@H](C(C)C)N(C)C(=O)OCc1ccc(NC(=O)[C@H](CCCNC(N)=O)NC(=O)C(NC(=O)CCCc2cn(CCCNC(=O)[C@H](Cc3ccc(O)cc3)NC(=O)[C@H](Cc3ccccc3)NC(=O)CCC(=O)NCCCCCC(=O)N(CCCC[C@H](NC(=O)N[C@@H](CCC(=O)O)C(=O)O)C(=O)O)Cc3cccc(Cl)c3)nn2)C(C)C)cc1)C(C)C (stereo partly shown) [Conjugate (I)] ({GluureaLys(ε-3-ClBenzyl)-Ahx-Suc}-FY[X1][ξV][Cit][PABC][NMeV]V[Dil][Dolaproine]-X2)
Body weight of mice (M ± m) ([1]; day 0 after treatment initiated): 22.2 ± 0.53 | Body weight of mice (M ± m) ([1]; day 2): 21.2 ± 0.36 | Body weight of mice (M ± m) ([1]; day 4): 18.0 ± 0.48 | Body weight of mice (M ± m) ([1]; day 6): 19.2 ± 0.35 | Body weight of mice (M ± m) ([1]; day 8): 19.4 ± 0.4 | Death cases ([1]; mice): no death cases | Survival ([1]; mice, whole experiment): 100% | General health and mice behavior ([1]; within and after intake): satisfactory without any pathologic changes and gastrointestinal and any other toxicity | Necropsy [2, 6]: None | Signs of intoxication [2, 6]: No signs of intoxication | Necropsy [2, 7]: None | Signs of intoxication [2, 7]: No signs of intoxication | Necropsy ([2]; group 4, 225 μg/kg intravenously 1 time in 3 weeks): None | Signs of intoxication ([2]; group 4, 225 μg/kg, 2-3 days after the first administration, all animals, finishing on days 6-7): group developed diarrhea finishing on | Signs of intoxication ([2]; group 4, 225 μg/kg, 2-3 days after the second administration): animals showed diarrhea. | Main observed toxic effect ([2]; rats, chronic): decreased body weight gain | Rat excretory system: urine volume ([2]; rats, chronic): reliable decreased urine volume | Chronic toxicity (overall) ([2]; rats, i.v. once every 3 weeks, intermediate stage 4 weeks): moderate toxicity | Antineoplastic activity [3]: presence of the antineoplastic activity | Necropsy [4, 8]: None | Signs of intoxication [4, 8]: No signs of intoxication | Necropsy [4, 9]: None | Signs of intoxication [4, 9]: No signs of intoxication | Necropsy ([4]; male rabbits, group 9, 122 μg/kg intravenously 1 time in 3 weeks): None | Signs of intoxication: the intake of food and water ([4]; male rabbits, group 9, 122 μg/kg, after administration): decreased. | Main observed toxic effect ([4]; rabbits, chronic): decreased body weight gain | Chronic toxicity (overall) ([4]; rabbits, i.v. once every 3 weeks, intermediate stage 4 weeks): moderate toxicity | Body weight effect (summary) ([5]; all test doses): decreased growth rate or decreased body weight regarding the initial One | Fatality ([5]; i.v. 4 mg/kg): 0 | Fatality ([5]; i.v. 4.5 mg/kg): 3 | Fatality ([5]; i.v. 5 mg/kg): 5
